The record followed here is paper PMC3877065, “Ligand Recognition by the TPR Domain of the Import Factor Toc64 from Arabidopsis thaliana” (PLoS ONE, 2013).

Read-outs that look alike come from different tables or passages of the source. Where no end group is shown, it is not given here.

Assay [1] addresses T1, TPR domain of AtToc64 (AtToc64_TPR-H6) (Arabidopsis thaliana, UniProt Q9LVH5).
T1 construct: The region encompassing the TPR domain of AtToc64 was composed of residues 474–589; made in house; host or cells: E. coli BL21(DE3)
The experiment in a line: biochemical. It counts as binding. As for the experimental part: Peptides were dissolved in the superdex buffer at 6–14 mM concentration and 302 µL were titrated against 1.4 ml of protein at 0.1–0.3 mM in a VP-ITC Microcal Instrument (GE Healthcare). Titrations were carried out at 20°C using 30 injections of 10 µL each injected at interval of 200 seconds. Injections were continued beyond saturation levels to allow determination of the heats of ligand dilution. The non-linear least square curve-fitting algorithm (Microcal Origin) was used for data fitting. After subtraction of the heat of dilution, three floating variables: stoichiometry (N), binding constant (Kd) and change in enthalpy of interaction (ΔH) were obtained. For subsequent alanine scan experiments the stoichiometry was fixed at N = 1.

The target of assay [2] is TPR domain of AtToc64 with a C-terminal hexa-histidine tag (AtToc64_TPR-H6) (Arabidopsis thaliana) (UniProt Q9LVH5). In words: ITC; peptide (6-14 mM) titrated into AtToc64_TPR-H6 (0.1-0.3 mM) in the cell, VP-ITC, 20°C, 25 mM Hepes, 100 mM KCl, pH 7.3; 1:1 model, stoichiometry fixed at N = 1 for the alanine scan. For orientation: ITC needs no label: the signal is the heat of the interaction.

For assay [3], the target named is T2, TPR domain of AtToc64 with a C-terminal hexa-histidine tag (AtToc64_TPR-H6) (Arabidopsis thaliana, UniProt Q9LVH5 474-589).
T2 chain: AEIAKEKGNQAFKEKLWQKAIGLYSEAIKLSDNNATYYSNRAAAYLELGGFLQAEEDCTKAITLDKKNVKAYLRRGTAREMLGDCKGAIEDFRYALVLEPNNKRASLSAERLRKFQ
In words: ITC.

In assay [4] the target is T3, TPR domain of AtToc64 with a C-terminal hexa-histidine tag (AtToc64_TPR-H6) (Arabidopsis thaliana, UniProt Q9LVH5 474-589).
T3 construct: Toc64 (AtToc64) from Arabidopsis thaliana, TPR domain, residues 474-589 of the full-length protein (NP_188424, At3g17970); Cloned with NcoI/XhoI into pETM10; also called TPR domain of Toc64 from Arabidopsis thaliana; source: E. coli BL21(DE3), purified (Ni-NTA, size exclusion chromatography); not shown: His6, C-terminal, kept
T3 sequence (looked up): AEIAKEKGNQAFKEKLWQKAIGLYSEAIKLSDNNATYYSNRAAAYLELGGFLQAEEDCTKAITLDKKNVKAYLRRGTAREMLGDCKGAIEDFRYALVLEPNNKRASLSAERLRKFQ
The experiment in a line: ITC; peptide (6-14 mM) titrated into 1.4 ml of protein (0.1-0.3 mM) in the cell; 20°C; 25 mM Hepes, 100 mM KCl, pH 7.3; 30 injections of 10 µL; 1:1 binding model with N, Kd and ΔH floating. As to conditions: both partners purified.

For assay [5], the target named is T3, TPR domain of AtToc64 with a C-terminal …. The description is as above. The settings on record: both partners purified. This is another data set of the same source.
[6] abbreviates: ITC alanine scanning, Table S1, stoichiometry fixed at N = 1, 20°C.
Setting [7] is: ITC, Figure 4, alanine scanning of octapeptides, stoichiometry fixed at N = 1 for alanine scan, 20°C.

In the case of `CC[C@H](C)[C@H](N)C(=O)N[C@@H](CCC(=O)O)C(=O)N[C@@H](CCC(=O)O)C(=O)N[C@H](C(=O)N[C@@H](CC(=O)O)C(=O)O)C(C)C` [IEEVD], the Kd (usually a measure of binding affinity in units of concentration) in assay [1] is 568 µM.
On to “Hsp90 C-terminal octapeptide, alanine mutant ASRMEEVD”, for which, in assay [2], the Kd was 854 µM and the stoichiometry N (usually the number of molecules, sites or subunits per partner or assembly) was determined as 1.
Consider “Hsp90 C-terminal octapeptide, alanine mutant TARMEEVD”, for which, in assay [2], the Kd was 344 µM and the stoichiometry N came to 1.
“Hsp90 C-terminal octapeptide, alanine mutant TSRMEEVA” gave a stoichiometry N in assay [2] of 1.
Consider “Hsp70 C-terminal octapeptide, alanine mutant GPTAEEVD”, for which, in assay [2], the stoichiometry N amounted to 1.
In assay [2], “Hsp90 C-terminal octapeptide, alanine mutant TSRAEEVD” registered a Kd of 1080 µM and a stoichiometry N of 1.
Regarding “GPTIEEVA [Ala-substituted Hsp70 octapeptide]”, in assay [1] (setting [6]), the Kd result is given as “No binding”.
On to TSRMEEVD [TSRMEEVD], for which, in assay [1], the affinity, expressed as Kd, was 218 µM.
As for TSRMEAVD [TSRMEAVD], in assay [1], the Kd turned out to be 1910 µM.
“Hsp90 C-terminal octapeptide, alanine mutant TSRMEAVD” showed a stoichiometry N in assay [2] of 1.
Take “GPTIEEAD [Ala-substituted Hsp70 octapeptide]”: in assay [1] (setting [6]), the Kd entry was “No binding”.
Molecule TSRMEEVA [TSRMEEVA] had a Kd in assay [1] of 1400 µM.
In assay [2], “Hsp70 C-terminal octapeptide, alanine mutant APTIEEVD” had a Kd of 740 µM and a stoichiometry N of 1.
In the same order, the values of “Hsp90 C-terminal octapeptide, alanine mutant TSAMEEVD” are 100 µM and 1.
In the same order, the values of “Hsp70 C-terminal octapeptide, alanine mutant GPAIEEVD” are 769 µM and 1.
Consider “GPTIEAVD [Ala-substituted Hsp70 octapeptide]”, for which the Kd entry in assay [1] (setting [6]) is “No binding”.
Take “TSRMAEVD [Ala-substituted Hsp90 octapeptide]”: the Kd result in assay [1] (setting [6]) is recorded as “No binding*”; in assay [1] (setting [7]), “No binding”.
In assay [2], “Hsp70 C-terminal octapeptide, alanine mutant GATIEEVD” came in with a Kd of 657 µM and a stoichiometry N of 1.
Consider GPTIEEVD [GPTIEEVD], for which, in assay [1], the affinity, expressed as Kd, was 230 µM.
Same read-out and setting: the same measure for GPTAEEVD [GPTAEEVD]: 4650 µM.
Regarding “TSRMEEAD [Ala-substituted Hsp90 octapeptide]”, in assay [1] (setting [7]), the Kd result is recorded as “No binding”.
`CSCC[C@H](N)C(=O)N[C@@H](CCC(=O)O)C(=O)N[C@@H](CCC(=O)O)C(=O)N[C@H](C(=O)N[C@@H](CC(=O)O)C(=O)O)C(C)C` [MEEVD] registered a Kd in assay [1] of 800 µM.
Consider GATIEEVD [Hsp70 C-terminal octapeptide, Pro118 to Ala (GATIEEVD)], for which, in assay [3], binding was put at a Kd of 657 µM.
Same read-out and setting: the same measure for TSRMEEVA [Hsp90 C-terminal octapeptide, Asp124 to Ala]: 1400 µM; for GPAIEEVD [Hsp70 C-terminal octapeptide, Thr119 to Ala (GPAIEEVD)]: 769 µM; for GPTAEEVD [Hsp70 C-terminal octapeptide, Ile120 to Ala (GPTAEEVD)]: 4600 µM.
In turn, APTIEEVD [Hsp70 C-terminal octapeptide, Gly117 to Ala] registered a Kd in assay [3] of 740 µM.
The molecule ASRMEEVD [Hsp90 C-terminal octapeptide, Thr117 to Ala] returned a Kd in assay [3] of 854 µM.

B1: C-terminal octapeptide of Hsp90 (TSRMEEVD) (peptide)
peptide: TSRMEEVD
notes: C-terminal octapeptide of Hsp90; also called Hsp90 octapeptide; C90_C8; source: synthetic peptide (Biomatik, >85% purity)
For the molecule B1, in assay [4], the dH was -6.18 kcal/mol and the “stoichiometry N” value is 0.94.
Regarding TSRAEEVD [Hsp90 C-terminal octapeptide, Met120 to Ala (TSRAEEVD)], the Kd in assay [3] is 1080 µM.

B2: C-terminal pentapeptide of Hsp70, Hsp70_C5 (IEEVD) (peptide)
peptide: IEEVD
notes: C-terminal pentapeptide of Hsp70; also called C70_C5; Hsp70 pentapeptide; source: synthetic peptide (Biomatik, >85% purity)
Take B2: the “stoichiometry N” value in assay [5] came out at 1.2. In assay [4], the dH was -1.63 kcal/mol and the “stoichiometry N” value came to 0.93.

B3: C-terminal pentapeptide of Hsp90, Hsp90_C5 (MEEVD) (peptide)
peptide: MEEVD
notes: C-terminal pentapeptide of Hsp90; also called C90_C5; Hsp90 pentapeptide; source: synthetic peptide (Biomatik, >85% purity)
For B3, in assay [4], the dH is -2.68 kcal/mol and the “stoichiometry N” value came out at 1.04.
On to TSAMEEVD [Hsp90 C-terminal octapeptide, Arg119 to Ala (TSAMEEVD)], for which binding in assay [3] was characterised by a dissociation constant (Kd) of 100 µM.

B4: C-terminal octapeptide of Hsp70 (GPTIEEVD) (peptide)
peptide: GPTIEEVD
notes: C-terminal octapeptide of Hsp70; also called Hsp70 octapeptide; C70_C8; source: synthetic peptide (Biomatik, >85% purity)
As for B4, in assay [4], the dH was -1 kcal/mol and the “stoichiometry N” value came to 1.2.
For the molecule TSRMEAVD [Hsp90 C-terminal octapeptide, Glu122 to Ala (TSRMEAVD)], binding in assay [3] was characterised by a dissociation constant (Kd) of 1900 µM.
On to TARMEEVD [Hsp90 C-terminal octapeptide, Ser118 to Ala (TARMEEVD)], for which, in assay [3], the Kd worked out at 344 µM.
